We go through two molecules from patent publication US20220348610A1 (published 2022).

The term Kd denotes the equilibrium constant for the complex coming apart.

Numbered stars: 1 amine (or outer) side, 2 acyl side, 3 side chain; on linkers, the order of the positions; unused ones are H or OH. Bridge positions count the residues as written; N and C are the ends. Square brackets hold non-standard residues; d marks the D form. Tyr(OMe) = O-methyl-Tyr (4-methoxyphenylalanine), COc1ccc(C[C@H](N[*:1])C(=O)[*:2])cc1; Trp(5-F) = N[C@@H](Cc1c[nH]c2ccc(F)cc12)C(=O)O; mXylylene = c1cc(C[*:1])cc(C[*:2])c1; AlexaFluor 647 = AlexaFluor 647 dye; αMeP = C[C@@]1(C(=O)O)CCCN1; Mpa = O=C(O)CCS

Assay [1] deals with T1, biotinylated PCSK9 (UniProt Q8NBP7 31-692, limits assumed, biotinylated (site not stated)). As to the kind of experiment: Alexa FRET Standard assay. Here is the method: A solution containing 1 nM biotinylated PCSK9+2.5 nM Lance Streptavidin Europium (Strep-Eu) was made in 50 mM HEPES pH 7.4, 0.15 M NaCl, 5 mM CaCl₂), 0.01% BSA, and 0.01% Surfactant P20. A separate solution containing 40 nM of the AlexaFluor tagged cyclic peptide was made in the same buffer system. An Echo was used to transfer 0.750 ul of compound to an assay plate followed by the addition of 15 ul of PCSK9+Stept-Eu and 15 ul of AF peptide. The final assay volume was 30.750 ul containing 0.5 nM PCSK9, 1.25 nM Strep-Eu, and 20 nM AF cyclic peptide. The reaction was incubated at room temperature for at least two hours prior to fluorescence measurements using an Envision Multilabel Reader. IC₅₀ values were determined by fitting data to a sigmoidal dose-response curve using nonlinear regression. Kᵢ was then calculated from the IC₅₀ and the KD of AF cyclic peptide. Counts (B-counts) of the europium-labeled PCSK9 were followed to observe if compounds were […]. A fall off of the B-counts likely indicated a false positive of inhibition. Data from this procedure was reported as “A=‘numerical value’ (nanomolar)”

Assay [2] deals with T1, biotinylated PCSK9. As to the kind of experiment: Alexa FRET Plus assay. The method, then:
A solution containing 1 nM biotinylated PCSK9+2.5 nM Lance Streptavidin Europium (Strep-Eu) was made in 50 mM HEPES pH 7.4, 0.15 M NaCl, 5 mM CaCl₂), 0.01% BSA, and 0.01% Surfactant P20. A separate solution containing 1920 nM of the AlexaFluor tagged cyclic peptide was made in the same buffer system. An Echo was used to transfer 0.075 ul of compound plus 0.675 ul of DMSO to each well of an assay plate followed by the addition of 15 ul of PCSK9+Stept-Eu and 15 ul of AF peptide. The final assay volume was 30.750 ul containing 0.5 nM PCSK9, 1.25 nM Strep-Eu, and 960 nM AF cyclic peptide. The reaction was incubated at room temperature for at least two hours prior to fluorescence measurements using an Envision Multilabel Reader. IC₅₀ values were determined by fitting data to a sigmoidal dose-response curve using nonlinear regression. Kᵢ was then calculated from the IC₅₀ and the KD of AF cyclic peptide. Counts (B-counts) of the europium-labeled PCSK9 were followed to observe if compounds were adversely affecting PCSK9. A fall off of the B-counts likely indicated a false positive of inhibition. Data from this procedure was reported as “P=‘numerical value’ (nanomolar)”

T1 sequence (Q8NBP7 31-692 limits assumed): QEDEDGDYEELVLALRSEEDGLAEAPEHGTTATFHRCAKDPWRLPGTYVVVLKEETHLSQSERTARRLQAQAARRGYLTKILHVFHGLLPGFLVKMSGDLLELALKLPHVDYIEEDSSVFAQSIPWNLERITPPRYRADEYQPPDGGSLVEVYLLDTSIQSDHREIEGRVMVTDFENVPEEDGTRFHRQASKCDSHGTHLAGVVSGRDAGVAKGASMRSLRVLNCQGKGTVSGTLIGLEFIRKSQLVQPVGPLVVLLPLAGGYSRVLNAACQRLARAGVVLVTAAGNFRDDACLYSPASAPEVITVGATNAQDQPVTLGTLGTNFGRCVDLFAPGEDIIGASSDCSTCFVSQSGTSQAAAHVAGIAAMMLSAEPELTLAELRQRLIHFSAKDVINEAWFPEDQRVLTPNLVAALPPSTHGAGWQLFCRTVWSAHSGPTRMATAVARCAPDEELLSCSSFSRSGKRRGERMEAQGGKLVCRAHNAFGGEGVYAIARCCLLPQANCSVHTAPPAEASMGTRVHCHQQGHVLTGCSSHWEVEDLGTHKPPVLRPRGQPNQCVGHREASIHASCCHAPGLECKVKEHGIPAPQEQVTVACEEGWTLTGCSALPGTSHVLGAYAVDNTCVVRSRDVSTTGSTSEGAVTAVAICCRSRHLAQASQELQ

B1: Reagent A (peptide)
peptide: [Mpa]K(AlexaFluor 647)G[Trp(5-F)][Trp(5-F)]DHY[αMeP]C-NH2
modifications: linker N-10 via mXylylene; not fully specified
notes: also called AlexaFluor647 (AF) tagged cyclic peptide; AF cyclic peptide
B1: the Kd with biotinylated PCSK9 [1] was determined as 0.083 µM.

B2: Reagent B (peptide)
peptide: [Mpa]K(AlexaFluor 647)[dA][Trp(5-F)][Trp(5-F)]DH[Tyr(OMe)][αMeP]C-NH2
modifications: linker N-10 via mXylylene; not fully specified
notes: as for B1
On to B2, for which, in the assay with biotinylated PCSK9 [2], the Kd stood at 0.035 µM.
